Assay results as given in patent publication US20240294593A1 (Genentech, published 2024).

B1: H1.80_L1 (antibody, V domains shown)
VH: EVQLVESGGGLVQPGGSLRLSCAASGFTFSSFGMHWVRQAPGKGLEWVSYISSGSSVIYYADSVKGRFTISRDNAKNSLYLQMNSLRAEDTAVYYCARGGRLVWSPDYWGQGTLVTVSS
VL: DIVMTQSPDSLAVSLGERATINCKSSQSLLNSGNQKNYLTWYQQKPGQPPKLLIYWASTRESGVPDRFTGSGSGTDFTLTISSLQAEDVAVYYCQNDYSYPFTFGSGTKLEIKR
notes: also called VH-I61V; Kabat 56
B2: H1.95_L1 (antibody, V domains shown)
VH: EVQLVESGGGLVQPGGSLRLSCAASGFTFSSFGMHWVRQAPGKGLEWVSYISSGSSINYYADSVKGRFTISRDNAKNSLYLQMNSLRAEDTAVYYCARGGRLVWSPDYWGQGTLVTVSS
VL: DIVMTQSPDSLAVSLGERATINCKSSQSLLNSGNQKNYLTWYQQKPGQPPKLLIYWASTRESGVPDRFTGSGSGTDFTLTISSLQAEDVAVYYCQNDYSYPFTFGSGTKLEIKR
notes: also called VH-I62N; Kabat 57
B3: H1.94_L1 (antibody, V domains shown)
VH: EVQLVESGGGLVQPGGSLRLSCAASGFTFSSFGMHWVRQAPGKGLEWVSYISSGSSIAYYADSVKGRFTISRDNAKNSLYLQMNSLRAEDTAVYYCARGGRLVWSPDYWGQGTLVTVSS
VL: DIVMTQSPDSLAVSLGERATINCKSSQSLLNSGNQKNYLTWYQQKPGQPPKLLIYWASTRESGVPDRFTGSGSGTDFTLTISSLQAEDVAVYYCQNDYSYPFTFGSGTKLEIKR
notes: also called VH-I62A; Kabat 57
B4: H1.92_L1 (antibody, V domains shown)
VH: EVQLVESGGGLVQPGGSLRLSCAASGFTFSSFGMHWVRQAPGKGLEWVSYISSGSSITYYADSVKGRFTISRDNAKNSLYLQMNSLRAEDTAVYYCARGGRLVWSPDYWGQGTLVTVSS
VL: DIVMTQSPDSLAVSLGERATINCKSSQSLLNSGNQKNYLTWYQQKPGQPPKLLIYWASTRESGVPDRFTGSGSGTDFTLTISSLQAEDVAVYYCQNDYSYPFTFGSGTKLEIKR
notes: also called VH-I62T; Kabat 57
B5: H1.97_L1 (antibody, V domains shown)
VH: EVQLVESGGGLVQPGGSLRLSCAASGFTFSSFGMHWVRQAPGKGLEWVSYISSGSSIKYYADSVKGRFTISRDNAKNSLYLQMNSLRAEDTAVYYCARGGRLVWSPDYWGQGTLVTVSS
VL: DIVMTQSPDSLAVSLGERATINCKSSQSLLNSGNQKNYLTWYQQKPGQPPKLLIYWASTRESGVPDRFTGSGSGTDFTLTISSLQAEDVAVYYCQNDYSYPFTFGSGTKLEIKR
notes: also called VH-I62K; Kabat 57
B6: H1.90_L1 (antibody, V domains shown)
VH: EVQLVESGGGLVQPGGSLRLSCAASGFTFSSFGMHWVRQAPGKGLEWVSYISSGSSILYYADSVKGRFTISRDNAKNSLYLQMNSLRAEDTAVYYCARGGRLVWSPDYWGQGTLVTVSS
VL: DIVMTQSPDSLAVSLGERATINCKSSQSLLNSGNQKNYLTWYQQKPGQPPKLLIYWASTRESGVPDRFTGSGSGTDFTLTISSLQAEDVAVYYCQNDYSYPFTFGSGTKLEIKR
notes: also called VH-I62L; Kabat 57
B7: H1.99_L1 (antibody, V domains shown)
VH: EVQLVESGGGLVQPGGSLRLSCAASGFTFSSFGMHWVRQAPGKGLEWVSYISSGSSIIHYADSVKGRFTISRDNAKNSLYLQMNSLRAEDTAVYYCARGGRLVWSPDYWGQGTLVTVSS
VL: DIVMTQSPDSLAVSLGERATINCKSSQSLLNSGNQKNYLTWYQQKPGQPPKLLIYWASTRESGVPDRFTGSGSGTDFTLTISSLQAEDVAVYYCQNDYSYPFTFGSGTKLEIKR
notes: also called VH-Y63H; Kabat 58
B8: H1.93_L1 (antibody, V domains shown)
VH: EVQLVESGGGLVQPGGSLRLSCAASGFTFSSFGMHWVRQAPGKGLEWVSYISSGSSIWYYADSVKGRFTISRDNAKNSLYLQMNSLRAEDTAVYYCARGGRLVWSPDYWGQGTLVTVSS
VL: DIVMTQSPDSLAVSLGERATINCKSSQSLLNSGNQKNYLTWYQQKPGQPPKLLIYWASTRESGVPDRFTGSGSGTDFTLTISSLQAEDVAVYYCQNDYSYPFTFGSGTKLEIKR
notes: also called VH-I62W; Kabat 57
B9: H1.91_L1 (antibody, V domains shown)
VH: EVQLVESGGGLVQPGGSLRLSCAASGFTFSSFGMHWVRQAPGKGLEWVSYISSGSSIFYYADSVKGRFTISRDNAKNSLYLQMNSLRAEDTAVYYCARGGRLVWSPDYWGQGTLVTVSS
VL: DIVMTQSPDSLAVSLGERATINCKSSQSLLNSGNQKNYLTWYQQKPGQPPKLLIYWASTRESGVPDRFTGSGSGTDFTLTISSLQAEDVAVYYCQNDYSYPFTFGSGTKLEIKR
notes: also called VH-I62F; Kabat 57
B10: H1.96_L1 (antibody, V domains shown)
VH: EVQLVESGGGLVQPGGSLRLSCAASGFTFSSFGMHWVRQAPGKGLEWVSYISSGSSIEYYADSVKGRFTISRDNAKNSLYLQMNSLRAEDTAVYYCARGGRLVWSPDYWGQGTLVTVSS
VL: DIVMTQSPDSLAVSLGERATINCKSSQSLLNSGNQKNYLTWYQQKPGQPPKLLIYWASTRESGVPDRFTGSGSGTDFTLTISSLQAEDVAVYYCQNDYSYPFTFGSGTKLEIKR
notes: also called VH-I62E; Kabat 57

target: T1, human PD-1-His (human, UniProt Q15116 25-167, limits assumed); assay: Octet
T1 construct: Antigen of the Octet assays; not shown: His tag
T1 sequence (Q15116 25-167 limits assumed): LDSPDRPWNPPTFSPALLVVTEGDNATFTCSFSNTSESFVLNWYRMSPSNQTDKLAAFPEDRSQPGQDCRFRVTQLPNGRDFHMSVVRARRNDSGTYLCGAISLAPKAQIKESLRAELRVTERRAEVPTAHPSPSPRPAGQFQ

Q: B1 was tested. Which Kd did it give?
A: 207 nM

Q: And the koff?
A: 0.0466 s⁻¹

Q: And the kon?
A: 226000 M⁻¹ s⁻¹

Q: Which results are given for B2?
A: Kd: 73.4 nM; koff: 0.0119 s⁻¹; kon: 162000 M⁻¹ s⁻¹

Q: For B3, which Kd is on record?
A: 80.6 nM

Q: What about the koff of the same binder?
A: 0.0161 s⁻¹

Q: What about the kon of the same binder?
A: 200000 M⁻¹ s⁻¹

Q: For B4, which Kd is on record?
A: 47.8 nM

Q: And the koff?
A: 0.00851 s⁻¹

Q: What about the kon of the same binder?
A: 178000 M⁻¹ s⁻¹

Q: What does the source list for B5?
A: Kd: 114 nM; koff: 0.0175 s⁻¹; kon: 154000 M⁻¹ s⁻¹

Q: What does the source list for B6?
A: Kd: 51.5 nM; koff: 0.00727 s⁻¹; kon: 141000 M⁻¹ s⁻¹

Q: With B7 as the binder, how does the Kd read?
A: 261 nM

Q: And the koff?
A: 0.0651 s⁻¹

Q: What about the kon of the same binder?
A: 250000 M⁻¹ s⁻¹

Q: With B8 as the binder, how does the Kd read?
A: 31 nM

Q: And the koff?
A: 0.00528 s⁻¹

Q: What about the kon of the same binder?
A: 170000 M⁻¹ s⁻¹

Q: For B9, which Kd is on record?
A: 61 nM

Q: What about the koff of the same binder?
A: 0.00917 s⁻¹

Q: What about the kon of the same binder?
A: 150000 M⁻¹ s⁻¹

Q: With B10 as the binder, how does the Kd read?
A: 41.6 nM

Q: And the koff?
A: 0.00751 s⁻¹

Q: And the kon?
A: 181000 M⁻¹ s⁻¹
